# Reference: patent US20080248026
# Test system: T1, purified murine β-catenin protein
# T1 sequence: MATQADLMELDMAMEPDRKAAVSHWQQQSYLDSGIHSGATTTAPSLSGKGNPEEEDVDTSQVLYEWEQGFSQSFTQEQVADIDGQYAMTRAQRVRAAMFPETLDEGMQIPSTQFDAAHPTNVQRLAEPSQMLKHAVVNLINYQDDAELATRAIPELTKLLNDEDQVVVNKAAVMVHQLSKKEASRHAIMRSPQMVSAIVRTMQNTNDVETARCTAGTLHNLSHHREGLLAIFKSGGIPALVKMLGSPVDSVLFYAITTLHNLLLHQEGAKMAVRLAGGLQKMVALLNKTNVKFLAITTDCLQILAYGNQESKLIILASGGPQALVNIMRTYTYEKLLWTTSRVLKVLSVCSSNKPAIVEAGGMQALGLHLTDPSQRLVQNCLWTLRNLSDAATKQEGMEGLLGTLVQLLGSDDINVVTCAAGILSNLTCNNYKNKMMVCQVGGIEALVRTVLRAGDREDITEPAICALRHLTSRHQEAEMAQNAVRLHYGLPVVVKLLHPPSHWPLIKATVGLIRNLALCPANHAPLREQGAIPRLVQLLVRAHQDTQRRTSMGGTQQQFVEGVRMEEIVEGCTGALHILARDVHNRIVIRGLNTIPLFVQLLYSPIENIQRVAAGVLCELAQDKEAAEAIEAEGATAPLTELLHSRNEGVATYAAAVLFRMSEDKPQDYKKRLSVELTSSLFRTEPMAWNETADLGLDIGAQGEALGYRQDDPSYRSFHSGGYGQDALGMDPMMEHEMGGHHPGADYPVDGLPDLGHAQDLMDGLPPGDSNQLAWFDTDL
substance,measurement,value
Akt (Cell Signaling),in vitro phosphorylation; collision induced dissociation spectrum of the peptide spanning Ser^552 (loss of the 98 Da H3PO4 group),indicating that this peptide (shown in FIG. 5C) is phosphorylated by Akt
